In article PMC3424535:

T1: McrB-N (N-terminal DNA-binding domain of McrB) (Escherichia coli, UniProt P15005 1-161)
T1 sequence: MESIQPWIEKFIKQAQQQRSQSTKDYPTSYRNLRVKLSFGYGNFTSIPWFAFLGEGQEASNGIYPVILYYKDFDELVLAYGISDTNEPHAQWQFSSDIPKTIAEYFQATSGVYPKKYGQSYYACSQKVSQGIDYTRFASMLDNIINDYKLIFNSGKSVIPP


Target: T1, McrB-N (N-terminal DNA-binding domain …)
Experiment: pyrrolo-dC fluorescence

Binder | binding signal
p/p (dsDNA, pyrrolo-dC at position 14 of each strand (first C of ACCGGT)) DNA 1: ATCTCTCTATTCACCGGTATTCTCTCTTTC DNA 2: GAAAGAGAGAATACCGGTGAATAGAGAGAT | 2.6 fold increase of pyrrolo-dC fluorescence (not affinity)
p/m (dsDNA, pyrrolo-dC at position 14 of strand 1; 5mC at position 14 of strand 2) DNA 1: ATCTCTCTATTCACCGGTATTCTCTCTTTC DNA 2: GAAAGAGAGAATACCGGTGAATAGAGAGAT | ~4 fold increase of pyrrolo-dC fluorescence (not affinity)
